Test results: paper PMC10865538 (2024)

B1: sdAb38 (VHH)
VHH: EVQLVESGGGLVQPGGSLRLSCAASGNTSTRHPMSWVRQAPGKGLELVASIGRGEITYYADSVKGRFTISRDNSKNTLYLQMNSLRAEDTAVYYCAVCLRSVFVNCHNFAYWGQGTLVTVSS
B2: sdAb42 (VHH)
VHH: EVQLVESGGGLVQPGGSLRLSCAASGNTSTRHPMSWVRQAPGKGLELVASIGRGEITYYADSVKGRFTISRDNSKNTLYLQMNSLRAEDTAVYYCAVDAVFGGRHSHWGQGTLVTVSS
B3: sdAb10 (VHH)
VHH: EVQLVESGGGLVQPGGSLRLSCAASGNTFPARTMSWVRQAPGKGLELVASIGPGRSTIYADSVKGRFTISRDNSKNTLYLQMNSLRAEDTAVYYCAVAYTSGLALRGSFSYWGQGTLVTVSS
B4: sdAb39 (VHH)
VHH: EVQLVESGGGLVQPGGSLRLSCAASGNTSTRHPMSWVRQAPGKGLELVASIGRGEITYYADSVKGRFTISRDNSKNTLYLQMNSLRAEDTAVYYCAAFVDFLSRHNSRRPYPHGYWGQGTLVTVSS
B5: sdAb12 (VHH)
VHH: EVQLVESGGGLVQPGGSLRLSCAASGNTFPARTMSWVRQAPGKGLELVASIGRGEITYYADSVKGRFTISRDNSKNTLYLQMNSLRAEDTAVYYCAAPAHGSWMSRRPHIYWGQGTLVTVSS

molecular target: SARS-CoV-2 S protein receptor-binding domain (R319-F541) (SARS-CoV-2, UniProt P0DTC2 319-541); test: ELISA

Binder	EC50 [nM]
B1	46.1
B2	2
B3	22.2
B4	4.3
B5	60.1
